Consider 20 sequences from the DeepSol protein solubility set.

This series is described as follows: soluble on expression in E. coli; label from the status in PepcDB or PDB records.
Turning to “MGSDKIHHHHHHMDAFEKVRTRLETQPQEEYEVVNAEIKHGGFVYYQEGCCLVRSKDEEADSDNYEVLFNLEELKLDQPFIDCIRVAPDEKYVAAKIRTEDSETSTLVVVKLSDQPVMEASFPNVSSFEWVKDEEDEDVLFYTFQRNLRCHDVYRATFGDNKRNERFYTEKDPSYFVFLYLTKDSRFLTLNIMNKTTSEVWLIDGLSPWDPPVLIQKRIHGMLYYVEHRDDELYILTNVGEPTEFKLMRTAADAPAIMNWDLFFTMKRNTKVVDLDMFKDHCVLFLKHSNLLYVNVIGLADDSVRSLKLPPWACGFIMDTNSDPKNCPFQLCSPIRPPKYYTYKFAEGKLFEETGHEDPITKTSRVLRIEAKSKDGKLVPMTVFHKTDSEDLQRKPLLVHVYGAYGMDLKMNFRPEKRVLVDDGWILAYCHVRGGGELGLQWHADGRLTKKLNGLADLVACIKTLHSQGFSQPSLTTLSAFSAGGVLVGALCNSKPELLRAVTLEAPFLDVLNTMLDTTLPLTLEELEEWGNPSSDEKHKNYIKRYCPCQNIKPQHYPSVHITAYENDERVPLKGIVNYTEKLKEAVAEHTKGAGEGYQPPNIILDIQPGGNHVIEDSHKKITTQMKFLYEELGLDSTDAFEALKKYLKF”, the “soluble on expression in E. coli” value is on record as “soluble”.
The value for “MGSDKIHHHHHHMPSIRVVNLKKYFGKVKAVDGVSFEVKDGEFVALLGPSGCGKTTTLLMLAGIYKPTSGEIYFDDVLVNDIPPKYREVGMVFQNYALYPHMTVFENIAFPLRARRISKDEVEKRVVEIARKLLIDNLLDRKPTQLSGGQQQRVALARALVKQPKVLLFDEPLSNLDANLRMIMRAEIKHLQQELGITSVYVTHDQAEAMTMASRIAVFNQGKLVQYGTPDEVYDSPKNMFVASFIGNPPTNFLRDFSVSVENKQTILKRDDVIIKLPEPVDVKLKEVVVGIRPEHCRISRERVENSIPGVVYVVEPLGRDIIVNVKTEKGEIIKVFGDTGKAPQPGENVFLVPDLRKIHLFNPETEETIL” was “not soluble”.
The entry for “TNRLSAYTSHRISKYNDRQTNTSLDINIGKFSSNTNYFFYHTDGWQNSPFEIKKKKGSGEPVLEETYKKTFRAQENQGVSQSLSYYATNNLSFSGNVQYNKRQIFTPTFSEKKAYDMDYRALTASLGTNYLFPNGLHTLSFDAVYDRFRFGYLYHDKDSSESLINNQGQTEQPTFFPGQLRNKNDQIRYTAEARGVFTLPYAQKLTGGLEYFREELISPYNLITDKADASTLSAYVQDEWKPLDWFNMTAGFRLVHHQEFGTRMTPKVSILAKYGPLNFRATYANGYKTPTLKELFARNELTTMGSHNLYLGNADLKPQMSDYYALGLEYNQGPISFSATVYDNELRNLISFMDIPTSPEHEAQGIKKTKQYANIGKARSRGLDVLCDASIGWGIKLGAGYSLVEAKNLQTDEWLEGAARHRANVHADWVHYWGQYRLGVSLFGRIQSERYYKDGNAPDYTLWRLATSHRFAHFRHIILDGTLGIDNLFDYVDDRPMGVNYATVTPGRTFFAQIAIRFNN” is “not soluble”; for “MGSDKIHHHHHHMSQPPLPAVCTQAASALLPVAIDYPAALALRQMAMQHDDYPKYLLAPEVSALLHYVPDLHRRMLLATLWNTGARINEALALTRGDFSLAPPYPFVQLATLKQRAEKAARTAGRMPSGSQPHRLVPLSDNQYVSELQMMVATLKIPLERRNRRTGRTEKARLWEITDRTVRTWIGEAVEAAAADDVTFSVPVTPHTFRHSYAMHMLYAGIPLKVLQALMGHKSVSSTEVYTKVFALDVAARHRVQFQMPGADAVAMLKGGS” it is “not soluble”.
The entry for “MGRIAVIGAGVAALAAARSLVLAGRRPLLIAPDREVISRGETLSPAAAALLDRLQWADLLDADSALPSEGRFSVWGDATLRQAAQGVGAWHLDRARFERQMRAKLDNDAIECHPIIVTMLVHHCDGVVLELGDGRVVFADAAIDCSGRAAVSSGAAAGRRRTDRLVAVWRVLDLPDDTEPAAATLIEAVPLGWWYMAPLPGDRMMLGLFTDTDLVPPGAAQDGATWTGLAASTVAIAPRLRSLGLDVSAAREPPQVAPAATVTASRLIEGRILRAGDAAAALDPLGANGLATALWSGMAAAEAALTLTEGEPERADAYERDYLQGIAQHLVSQQAMYAAEPRFADAPFWQRRRAVVSSHPQKETLPLEHHHHHH” is “not soluble”.
On to “MIDETAEEIREMRTHSSSVVAVKAARALEALLDSDYPTVAAYVRALERNSTALRRANPSHASLVTTQREVVSRVRDADPASIPEAQEVTAAAIDDVVARVNMGKHDAAAATAEHITDGQTLLTHDYSSTVLEAIELAAQDGAHLDVFVTEARPRHLGRKTVRALAQLDRVDPTLIVDGAAGHVLDDCDRVLLGMDCIVADTYYNRVGTYPIVAAAADAGTPVTVAGSAAKLVADGFQFTNDFRDTSEVIREPPAGFTVENPAYDATPTRLLDAVVTEDGRRTEFPLESLEHHHHHH”, for which the “soluble on expression in E. coli” value is “not soluble”.
The value for “MGSDKIHHHHHHVKQRVAVIGAGPGGLACAMLLAGRGIDVTVYEKQPIVGGRTSRVQVGDYQFDRGPTFLNMPHILENLFTSIDLDMKDYLDLKALDPMYTLYFNGGKDHFTMTTDRDRMKQTIEQHFPGNGEGYDRFMAEQALKLAKLMPILQTKHDKLTDYLSPRVITALPRLSLGRSLYDVLSDYFTSEELKYAFTFQAKYLGMSAWECPGGFSILSYMEHAYGVHHPIGGMNQIPEAMKRAVEELGGTVHLNTGISQLILDGTTATGVILESGEHVLYDDVVVGADFAHAMNHLVPEGVLKKWSRPKIDRKKFSCSTFMLYLGVNKSFDAPHHTIYFADDYEKNVREMTQTLELSDDFSFYVQNPSIIDSTLAPEGKSSLYVLVPVPNNYSELDWAIEGPKLRRRVLDALEHRSPYTGVEAAIEVEEMFTPDDWEAMGVHQGATFNLGHQLTQMMYFRPHNRFEELEHVYLVGGGTHPGSGLPTIFESARITADLLTSEVGVGK” was “not soluble”; that for “MTFLFDCLILLNILIATCQAIGRTQSTAIEGVLLCEDGPAKGVLIKLYDHDTVSPDELMDSAKTDADGHFRLSGTADEISGIEPKINIYHDCDDGILPCQRRITIFVPSKYVSNTKQPSETFNLGRLQLAGKYAGESRDCLH” was “soluble”; that for “MSLINFGIIGAGNIANRFADSLSHFKDANLYAVACRGIEKAAAFQRKHPCQLIYDDYDELLSNKDIDIVYIAVPHGFHYLWISKALKKGKAVLCEKPATLNAEQMKSVQKLAEAKNIFFMEAMKSRFTPAYQEIKTIINNGEIGKIISIDSSFCREISKKTATYHFQPIQGGCLLDIGIYNVALTEDFAKTLPKVEVLENKMDISGVESYTKAKLLFPNLSATIECAFDRNKQTEATIKGEKGQIEIKNFHRAESFIVKTSSGTKNYHIAYEQDDFHGEIAHVIQCYGKNKTESNNMPISDSVNCALIIEKIKNQIPELAEGHHHHHH” was “soluble”.
The entry for “AHHHHHHGSNFQQEILIIKSEIYPIVSKHYPKNTRREVISLYDLITFAILAHLHFNGVYKHAYRVLIEEMKLFPKIRYNKLTERLNRHEKLLLLAQEELFKKHAREYVRILDSKPIQTKELARKNRKDKEGSSEIISEKPAVGFVPSKKSFTMGTS” is “not soluble”; for “MGSDKIHHHHHHMEEFVFFIEGNVNHPLTIDPTVWIFDERKVDLTTYFQELATKEDEMTAYKKAISKQWDKEITKGSEPPRPDTNGNVIKYEKQKLIHGSFGMPFMPFLKNSEPDSDAKTVTVVCADGNEHSFPIDEAAQFILGFAKNGSPLREDGPVHVYFGDGSNESTPIINVIRFSVS” it is “not soluble”; for “MKDSPFYQHYDLDLKDKPLGEGSFSICRKCVHKKSNQAFAVKIISKRMEANTQKEITALKLCEGHPNIVKLHEVFHDQLHTFLVMELLNGGELFERIKKKKHFSETEASYIMRKLVSAVSHMHDVGVVHRDLKPENLLFTDENDNLEIKIIDFGFARLKPPDNQPLKTPCFTLHYAAPELLNQNGYDESCDLWSLGVILYTMLSGQVPFQSHDRSLTCTSAVEIMKKIKKGDFSFEGEAWKNVSQEAKDLIQGLLTVDPNKRLKMSGLRYNEWLQDGSQLSSNPLMTPDILGSSGAAVHTCVKATFHAFNKYKREGFCLQNVDKA” it is “soluble”.
The entry for “MGSDKIHHHHHHMTQITPQPGIMDIALYQGGAAHVDGVSNVTKLSSNENPLGPSPAAVEAMAEAAATMHRYPSSDHATLRAAIAETHGLDAERIICGAGSDEIIAFLCQCYAGPGDEVLYTEHGFAMYRISALAAGATPVEVKERERVTDVDALLAGCTAQTKLVFIANPNNPTGTMISEAEVARLADGIPEDAILVLDGAYAEYVEGFDAGAQLIAARHNVVMTRTFSKIYGLGGARVGWAYGPQEIIDVLNRVRGPFNVSTTALAGAEAAVRDTDYVQRCRLENAKWRGWLADQLAELGVPSDTSCTNFILARFASQSEAESCDDFLKQRGLIVRRVAGYNLPTALRITIGDETACRAVAAAVKDFKAGAAE” is “not soluble”.
Turning to “PNISDIIEQYLKQVLNMSDQDIVEIKRSEIANKFRCVPSQINYVINTRFTLERGYIVESKRGGGGYIRIMKVKTKSEAQLIDQLLELIDHRISQSSAEDVIKRLMEEKVISEREAKMMLSVMDRSVLYIDLPERDELRARMLKAMLTSLKYKLEI”, the “soluble on expression in E. coli” value is “soluble”.
With PEKVTVVPKFGDWDENNPSSADGYTHIFNKVREER, the “soluble on expression in E. coli” value was “soluble”.
The entry for “MSLDNLNLIVSLKDGGLLHFKRDEELGEINVFNFQEQGTLIPFLGFFGSGKQKDVVLDGVSSNSIVDALQIGGSGVVITLSVNKVLKLWNLDGHQNLSSLTIASDDNTWLPTIPSKYLKSYDQEDGKTIITLFINTKSGDSSKSMFVFKSFELESSNLHDLSDLSFQPELPNSLLFSSDVFYHESNFQNTIWFIQDYEVVGFGTSQLKYYILWKSNTSSILVEYTINPVNGAILSEGHHHHHH” is “not soluble”; for “MILFPQNEDTVMSEMVAFRQGTSMPSRETILHYVVETVNQITELEPALHLLPWSGVNSAIYEQRFAQCYDEGLCAAQTSAPNVPQGILPSTDWAQGIGLLCFAAGYMSAGERPLTHNQLCDFVKQAAVGLSPIEGEAASGFSTVRSIALPVFRRLQRDGHASRVLLLQTLLHLVAWKSASQYARQQAQRLLWMGGILGEGGEHSLLVLDKALREEAVGEKSLPALLIFTSFLAHFPAGPVFID” it is “not soluble”.
The entry for “MSLNLIFKKKSYSFKLSTKVENSKTTYLTKLGWIIKLTSNDKKIGFGEVSPLLEEDLKKCAKQLNMIPKNVEAFNLSEQINIFHPCIQSAINSALAEINGKIIFKENYTFDEIDKTAILLNSENVITELNEIKQRQSIIGKSVTIKWKVALRDNHEEEANLEEILSQIGNNIKLRIDANGSWSRKIANRWADILKDNKNIDWLEQPLCVEDIEGMKELNKKIPIALDESLLKFPTLIDEWKGWQIRRPSQENNPVKLLRELENKKALISISTSFETGIGKRWLYHLSSLQLQGPTPKVPGLGMNKFPNSFLFLNEAKKIWDQLEGHHHHHH” is “not soluble”; for “VRTHEVVLHRIEQDLAAGKLTVGGRLPAERALAEELGVGRSSVREAMRVLEAMGIVRTAVGSGPDAGAIVAADPAASIGAAIRLHMATRTLPIHDVVQTRTLLESWAVQEAAGQAPDLDFSAIDTLLDAMDDEDLSPEAFHRLDADLHVAMAGLAGNVLVEAMMVSLRDSIHGYVMQAVPLLDDWPAVATHLRCEHRGIVAALRDGHGAEAAGLVREHIEGFYGRFAPVRG” it is “not soluble”.
As for “MDCKELARIFYALSEPKRLCMVKLLLEREELCVCDFMRIFKESQPKISFHLKVLREAGLVTSQKRGKWNYYRLNKEAPVIPCVEKLLKDVKLEEKIQLEVKR”, the “soluble on expression in E. coli” value is on record as “soluble”.
